We go through 2 molecules from patent publication US20240218065A1 (SHENGHE CHINA BIOPHARMACEUTICAL, published 2024).

The target in test [1] is T1, Human-NKP30-His (Kactus, cat: NKP-HM430) (human, UniProt O14931 19-138, limits assumed).
T1 construct: also called NKP30 protein; NKP30-his protein; not shown: His tag
T1 sequence (looked up): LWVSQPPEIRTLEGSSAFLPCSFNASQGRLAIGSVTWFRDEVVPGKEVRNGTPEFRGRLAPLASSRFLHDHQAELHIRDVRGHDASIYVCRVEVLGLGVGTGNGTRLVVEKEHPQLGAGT
Briefly: ELISA: Human-NKP30-His coated, antibody titrated 3-fold from 10 µg/mL, HRP goat anti-human IgG-Fc, OD450-OD570. On the procedure: Human-NKP30-His (Kactus, cat: NKP-HM430) was diluted to […] with PBS buffer at pH 7.4, added into the 96-well ELISA plate at 100 μL per well, coated overnight at 4° C., and blocked with 1% BSA blocking solution for 1 hour. The plate was washed 3 times with PBST, and the constructed antibodies were diluted to 10 μg/mL with 0.5% BSA sample diluent as the starting concentration, and then diluted by 3-fold gradient (11 gradients in total). A negative control (blank well and IgG1 isotype control) and a positive control were set, and the positive control was a NKP30 humanized antibody (sequence shown in SEQ ID No. 28), and incubated at 37° C. for 1 h at 100 μL per well. The plate was washed 3 times with PBST, and then HRP-labelled goat anti-human IgG-Fc was diluted with the sample diluent at 1:20000. 100 μL was added into each well, and incubated at room temperature for 1 hour. The plate was washed 4 times with PBST, and 100 μL of TMB substrate was added into each well, and incubated at room temperature without light for 10 minutes. 100 μL of 1 M HCl solution was added into each well to terminate the color development reaction. The absorbance value of each well in the 96-well plate was determined by selecting the wavelength of 450 nm and the reference wavelength of 570 nm on a multifunctional enzyme marker, and the absorbance value (OD)=OD₄₅₀ₙₘ−OD₅₇₀ₙₘ. The logarithm of the concentration of the constructed antibody was taken as the abscissa, and the measured absorbance value of each well was taken as the ordinate, and the Sigmoidaldose-response (Variable Slope) method (GraphPad Prism software, GraphPad Software, San Diego, California) was selected for nonlinear regression to obtain the binding curve of the target antibody to NKP30.
A general note: An ELISA detects its analyte on a solid surface through an enzyme-linked reagent.

The target of a further test is T2, Human-GPC3-His (human, UniProt P51654 25-559, limits assumed).
T2 construct: Coated on the ELISA plate; also called GPC-3 protein; GPC3 protein; not shown: His tag
As to the kind of experiment: ELISA: Human-GPC3-His coated at 0.5 µg/mL, antibody titrated 3-fold from 10 µg/mL, HRP goat anti-human IgG-Fc, OD450-OD570. The protocol:
Human-GPC3-His was diluted to 0.5 μg/mL with PBS buffer at pH 7.4, added into the 96-well ELISA plate at 100 μL per well, coated overnight at 4° C., and blocked with 1% BSA blocking solution for 1 hour. The plate was washed 3 times with PBST, and the constructed antibody was diluted to 10 μg/mL with 0.5% BSA sample diluent as the starting concentration, and then diluted by 3-fold gradient (11 gradients in total) and incubated at 37° C. for 1 h at 100 μL per well. The plate was washed 3 times with PBST, and then HRP-labelled goat anti-human IgG-Fc was diluted with the sample diluent at 1:20000. 100 μL was added into each well, and incubated at room temperature for 1 hour. A negative control (blank well and IgG1 isotype control) and a positive control were set, and the positive control was a GPC-3 and CD3 bispecial antibody from the literature Hs, A, et al. “Engineering a bispecific antibody with a common light chain: Identification and optimization of an anti-CD3 epsilon and anti-GPC3 bispecific antibody, ERY974.” Methods 154 (2019): 10-20. (The GPC-3 and CD3 bispecial antibody sequence consists of SEQ ID No. 22, SEQ ID No. 23, and SEQ ID No. 24). The plate was washed 4 times with PBST, and 100 μL of TMB substrate was added into each well, and incubated at room temperature without light for 10 minutes. 100 μL of 1 M HCl solution was added into each well to terminate the color development reaction. The absorbance value of each well in the 96-well plate was determined by selecting the wavelength of 450 nm and the reference wavelength of 570 nm on a multifunctional enzyme marker, and the absorbance value (OD)=OD₄₅₀ₙₘ−OD₅₇₀ₙₘ. The logarithm of the concentration of the constructed antibody was taken as the abscissa, and the measured absorbance value of each well was taken as the ordinate, and the Sigmoidaldose-response (Variable Slope) method (GraphPad Prism software, GraphPad Software, San Diego, California) was selected for nonlinear regression to obtain the binding curve of the target antibody to the GPC-3 protein.

T2 sequence (P51654 25-559 limits assumed): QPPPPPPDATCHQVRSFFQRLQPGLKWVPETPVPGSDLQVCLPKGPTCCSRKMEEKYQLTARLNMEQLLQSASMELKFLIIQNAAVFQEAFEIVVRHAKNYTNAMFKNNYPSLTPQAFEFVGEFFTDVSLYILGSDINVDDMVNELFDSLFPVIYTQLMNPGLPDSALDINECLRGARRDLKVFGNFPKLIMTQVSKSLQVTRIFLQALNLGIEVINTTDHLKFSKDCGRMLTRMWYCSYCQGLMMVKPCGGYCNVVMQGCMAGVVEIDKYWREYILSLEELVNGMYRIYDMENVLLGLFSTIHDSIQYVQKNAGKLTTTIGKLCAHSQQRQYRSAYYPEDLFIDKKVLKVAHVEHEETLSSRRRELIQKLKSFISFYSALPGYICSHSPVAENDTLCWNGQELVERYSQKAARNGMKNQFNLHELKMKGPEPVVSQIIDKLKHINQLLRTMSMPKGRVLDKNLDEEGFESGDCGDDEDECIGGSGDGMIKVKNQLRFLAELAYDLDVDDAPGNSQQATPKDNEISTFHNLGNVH

B1: GN15-E (bispecific antibody, human IgG1, kappa)
light 1: EVQLVESGGGLVQPGGSLRLSCAASGITFSRSVMGWFRQAPGKLRELVAGITSDDNTDYADSVKGRFTISRDNSKNTLYLQMNSLRAEDTAVYYCNILPDSRLGWGQGTLVTVSSGGGGSGGGGSGGGGSQVQLVQSGAEVKKPGASVKVSCKASGYTFTDYEMHWVRQAPGQGLEWMGALDPKTGDTAYSQKFKGRVTLTADKSTSTAYMELSSLTSEDTAVYYCTRFYSYTYWGQGTLVTVSSRTVAAPSVFIFPPSDEQLKSGTASVVCLLNNFYPREAKVQWKVDNALQSGNSQESVTEQDSKDSTYSLSSTLTLSKADYEKHKVYACEVTHQGLSSPVTKSFNRGEC
heavy 1: not shown
heavy 2: QVQLVQSGAEVKKPGASVKVSCKASGYTFTDYEMHWVRQAPGQGLEWMGALDPKTGDTAYSQKFKGRVTLTADKSTSTAYMELSSLTSEDTAVYYCTRFYSYTYWGQGTLVTVSSASTKGPSVFPLAPSSKSTSGGTAALGCLVKDYFPEPVTVSWNSGALTSGVHTFPAVLQSSGLYSLSSVVTVPSSSLGTQTYICNVNHKPSNTKVDKKVEPKSCDKTHTCPPCPGGGGSGGGGSPALLLLLLLRPPATRGITCPPPMSVEHADIWVKSYSLYSRERYICNSGFKRKAGTSSLTECVLNKATNVAHWTTPSLKCIRDPALVHQRPAPPSTVTTAGVTPQPESLSPSGKEGGGGSGGGGSAPELLGGPSVFLFPPKPKDTLMISRTPEVTCVVVDVSHEDPEVKFNWYVDGVEVHNAKTKPREEQYNSTYRVVSVLTVLHQDWLNGKEYKCKVSNKALPAPIEKTISKAKGQPREPQVYTLPPSRDELTKNQVSLTCLVKGFYPSDIAVEWESNGQPENNYKTTPPVLDSDGSFFLASKLTVDKSRWQQGNVFSCSVMHEALHNHYTQKSLSLSPGK
light 2: DVVMTQSPLSLPVTPGEPASISCRSSQSLVHSNRNTYLHWYLQKPGQSPQLLIYKVSNRFSGVPDRFSGSGSGTDFTLKISRVEAEDVGVYYCSQNTHVPPTFGQGTKLEIKRTVAAPSVFIFPPSDEQLKSGTASVVCLLNNFYPREAKVQWKVDNALQSGNSQESVTEQDSKDSTYSLSSTLTLSKADYEKHKVYACEVTHQGLSSPVTKSFNRGEC
notes: Trifunctional antibody against GPC-3 and NKP30 with IL-15 and IL-15Rα sushi between CH1 and CH2; also called constructed antibody GN15-E; multifunctional antibody
As for B1, the entries for the “EC50 (read off the curve)” value (in test [1]; with Human-GPC3-His) were about 0.04 µg/mL and about 0.06 µg/mL, respectively.

B2: GN15-F (bispecific antibody, human IgG1, kappa)
light: B1 light 2
heavy 1: not shown
heavy 2: B1 heavy 2
notes: Trifunctional antibody against GPC-3 and NKP30 with IL-15 and IL-15Rα sushi between CH1 and CH2; also called constructed antibody GN15-F; multifunctional antibody
For B2, the EC50 (read off the curve) (as a rule, the concentration at which the effect is half-maximal) in test [1] is about 0.03 µg/mL; with Human-GPC3-His, about 0.02 µg/mL.
